Test results from patent US20100297153A1 (CRUCELL HOLLAND B V, published 2010).

How the values were obtained:
[1] = target: T1, ATAD3A (human protein having the amino acid sequence SEQ ID NO:6) (human, UniProt Q9NVI7 2-586, limits assumed); assay: CR2361 affinity column loaded with NB4 cell lysate, elution at pH 2.7, SDS-PAGE bands identified by MALDI-MS
T1 construct: Endogenous protein from a RIPA lysate of NB4 cells; Bands of 30, 40 and 75 kDa eluted from the CR2361 column gave ATAD3A peptides; No peptides were identified from the 150 kDa band
T1 sequence: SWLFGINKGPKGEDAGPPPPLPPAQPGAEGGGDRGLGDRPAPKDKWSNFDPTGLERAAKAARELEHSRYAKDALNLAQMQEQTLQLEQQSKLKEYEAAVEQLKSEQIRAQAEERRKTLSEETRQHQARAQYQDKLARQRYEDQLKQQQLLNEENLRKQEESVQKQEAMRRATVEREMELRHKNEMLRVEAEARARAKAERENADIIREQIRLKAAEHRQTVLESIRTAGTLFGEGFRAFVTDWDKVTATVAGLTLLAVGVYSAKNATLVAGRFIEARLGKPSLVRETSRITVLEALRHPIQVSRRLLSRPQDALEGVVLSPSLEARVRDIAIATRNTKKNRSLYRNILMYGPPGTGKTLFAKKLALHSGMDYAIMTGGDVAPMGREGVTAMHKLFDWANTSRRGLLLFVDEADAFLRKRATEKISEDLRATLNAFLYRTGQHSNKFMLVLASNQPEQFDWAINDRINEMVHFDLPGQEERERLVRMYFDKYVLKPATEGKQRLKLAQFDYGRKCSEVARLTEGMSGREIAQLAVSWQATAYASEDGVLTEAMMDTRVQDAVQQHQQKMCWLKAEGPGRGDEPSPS
Protocol: In advance the IgG1s were passed over a 100 kDa ultracentrifugal device to remove incomplete small IgG fragments.
For the purification of the target antigen of CR2361, an affinity column was prepared as described above for CR2401. A cell lysate of 4*10⁹ NB4 cell was prepared in RIPA buffer, according to the method described in Example 5. The cell lysate was treated essentially as described above and applied to the negative control affinity column that was connected in series to the CR2361 affinity column and an AKTA FPLC 900. The system was equilibrated with RIPA buffer. The lysate was applied to the columns at 1 ml/min and the columns were washed with 5 column volumes of RIPA buffer, followed by a salt gradient from 150 mM NaCl to 500 mM NaCl, a wash with 5 column volumes TX-100 buffer (1% Triton X-100, 150 mM NaCl, 50 mM Tris pH 7.4, protease inhibitors (Roche)) and an elution of 5 column volumes glycine, pH 2.7, whereby after 1 column volume of elution buffer the flow through was put for 10 minutes on hold to enhance the release of immune complexes. Next, the column was washed with 5 column volumes of TX-100 buffer. The eluted fractions of 0.5 ml were neutralized with 20 μl 2 M Tris/HCl, pH 7.4, and 20 μl of the samples were run on a non-reducing SDS-PAGE Criterion gel and stained with silver stain according to standard techniques known to the skilled artisan. […]

[2] = target: T2, mycATAD3A (ATAD3A with a myc tag at the 5' end) (human, UniProt Q9NVI7 2-586); assay: immunoprecipitation from lysate of transfected HEK293T cells, immunoblot with anti-myc
T2 construct: Expressed in transfected HEK293T cells and immunoprecipitated from a 1% Triton X-100 lysate; also called 5' myc-tagged ATAD3A
T2 sequence: T1 sequence

[3] = target: T3, ATAD3Amyc (ATAD3A with a myc tag at the 3' end) (human, UniProt Q9NVI7 1-586); assay: as above
T3 construct: Expressed in transfected HEK293T cells and immunoprecipitated from a 1% Triton X-100 lysate; also called 3' myc-tagged ATAD3A; not shown: C-terminal myc tag, in frame from vector pcDNA3.1/hismycA
T3 sequence: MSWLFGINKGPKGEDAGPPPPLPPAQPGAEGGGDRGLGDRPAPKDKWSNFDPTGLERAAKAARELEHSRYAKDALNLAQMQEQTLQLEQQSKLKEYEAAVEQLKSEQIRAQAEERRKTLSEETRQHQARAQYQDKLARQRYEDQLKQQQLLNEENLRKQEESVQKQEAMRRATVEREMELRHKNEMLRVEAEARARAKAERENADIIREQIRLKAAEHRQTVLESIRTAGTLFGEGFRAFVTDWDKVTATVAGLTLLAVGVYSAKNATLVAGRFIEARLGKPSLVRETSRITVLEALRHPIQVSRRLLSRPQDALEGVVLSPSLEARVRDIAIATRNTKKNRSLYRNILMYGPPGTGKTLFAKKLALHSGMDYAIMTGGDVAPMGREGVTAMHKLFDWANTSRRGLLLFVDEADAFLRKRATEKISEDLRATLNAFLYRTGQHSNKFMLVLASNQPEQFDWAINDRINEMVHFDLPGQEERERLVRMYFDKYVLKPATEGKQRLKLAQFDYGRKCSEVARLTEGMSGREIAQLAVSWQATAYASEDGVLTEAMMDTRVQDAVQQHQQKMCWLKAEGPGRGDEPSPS

Measured: binding result

B1: CR2361 IgG1 (antibody, V domains shown)
VH: EVQLVESGGGLVQPGRSLRLSCAASGFTFDDYGMSWVRQAPGKGLEWVSLISWDGGSTYYADSVKGRFTISRDNSKNSLYLQMNSLRAEDTAVYYCAKWAPSHSFDYWGQGTLVTVSS
VL: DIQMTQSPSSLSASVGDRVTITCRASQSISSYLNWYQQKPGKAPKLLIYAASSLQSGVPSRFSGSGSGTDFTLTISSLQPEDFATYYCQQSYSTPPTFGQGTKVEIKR
notes: also called IgG1 CR2361; CR24361 (apparent misprint)
binds: all assays above
